Measurements reported in publication PMC6857237, “Design and structural characterisation of olfactomedin-1 variants as tools for functional studies” (BMC Molecular and Cell Biology, 2019).

Target: the molecule itself
Assay: SEC-MALS; analytical Superdex200 Increase 10/300, room temperature, SEC buffer (150 mM NaCl, 2 mM CaCl2, 20 mM HEPES pH 7.5), 0.5 mL/min; aldolase as calibration standard

B1: Olfm1^coil-Olf (olfactomedin-1 part of the coiled coil plus Olfactomedin domain, residues 212–478), disulfide-linked dimer (domain or fragment, mouse (Mus musculus))
chain: GSSNLEERLRACMQKLACGKLTGISDPVTVKTSGSRFGSWMTDPLAPEGDNRVWYMDGYHNNRFVREYKSMVDFMNTDNFTSHRLPHPWSGTGQVVYNGSIYFNKFQSHIIIRFDLKTEAILKTRSLDYAGYNNMYHYAWGGHSDIDLMVDENGLWAVYATNQNAGNIVISKLDPVSLQILQTWNTSYPKRSAGEAFIICGTLYVTNGYSGGTKVHYAYQTNASTYEYIDIPFQNKYSHISMLDYNPKDRALYAWNNGHQTLYNVTLFHAAA
modifications: N-linked glycans (8 per dimer, GntI-/- cells); inter-chain disulfide Cys221-Cys221; for crystallisation deglycosylated with Endo-H
notes: N-terminal residues left by the restriction site in the mature protein; Olfactomedin-1 (Olfm1), mouse, BMZ isoform cDNA as template, residues 212-478 (UNIPROT numbering); C-terminal VIRSDEL not included; includes Cys221; Only about a third of the expressed sample formed the disulfide-linked dimer; the dimer fraction was isolated by SEC and used; Secreted with a cystatin signal peptide (not in the …)
B1 was tested, and the “stoichiometry N” value was 2.
